In the supplement of paper PMC11246515:
± gives the standard deviation of the averaged measurements.

Test: total protein half-life in vivo (active degradation + dilution); higher = more stable protein
[1] = E. coli NCM3722 delta-clpP delta-lon delta-hslV, growth: N-lim chemostat, doubling time 6 h
[2] = E. coli NCM3722 delta-clpP, growth: N-lim chemostat, doubling time 6 h
[3] = E. coli NCM3722 delta-hslV, growth: N-lim chemostat, doubling time 6 h
[4] = E. coli NCM3722 delta-lon, growth: N-lim chemostat, doubling time 6 h
[5] = E. coli NCM3722 delta-smpB, growth: N-lim chemostat, doubling time 6 h
[6] = wild type E. coli NCM3722, growth: C-lim chemostat, doubling time 3 h
[7] = wild type E. coli NCM3722, growth: C-lim chemostat, doubling time 6 h
[8] = wild type E. coli NCM3722, growth: C-lim chemostat, doubling time 12 h
[9] = wild type E. coli NCM3722, growth: N-lim chemostat, doubling time 6 h
[10] = wild type E. coli NCM3722, growth: N-lim chemostat, doubling time 12 h
[11] = wild type E. coli NCM3722, growth: P-lim chemostat, doubling time 6 h
[12] = wild type E. coli NCM3722, growth: P-lim chemostat, doubling time 12 h

Sequence | total protein half-life in vivo [1] | total protein half-life in vivo [2] | total protein half-life in vivo [3] | total protein half-life in vivo [4] | total protein half-life in vivo [5] | total protein half-life in vivo [6] | total protein half-life in vivo [7] | total protein half-life in vivo [8] | total protein half-life in vivo [9] | total protein half-life in vivo [10] | total protein half-life in vivo [11] | total protein half-life in vivo [12]
MQTPHILIVEDELVTRNTLKSIFEAEGYDVFEATDGAEMHQILSEYDINLVIMDINLPGKNGLLLARELREQANVALMFLTGRDNEVDKILGLEIGADDYITKPFNPRELTIRARNLLSRTMNLGTVSEERRSVESYKFNGWELDINSRSLIGPDGEQYKLPRSEFRAMLHFCENPGKIQSRAELLKKMTGRELKPHDRTVDVTIRRIRKHFESTPDTPEIIATIHGEGYRFCGDLED [P0A9Q1] | 5.53 ± 0.35 h | 5.61 ± 1 h | 4.95 ± 0.086 h | 5.76 ± 0.36 h | 4.87 ± 0.05 h | 2.73 ± 0.069 h | 5.78 ± 0.19 h | 9.44 ± 1.7 h | 4.76 ± 0.39 h | 8.14 ± 0.24 h | 5.18 ± 0.058 h | 10.3 ± 0.2 h
MRVLLFLLLSLFMLPAFSADNLLRWHDAQHFTVQASTPLKAKRAWKLCALYPSLKDSYWLSLNYGMQEAARRYGVDLKVLEAGGYSQLATQQAQIDQCKQWGAEAILLGSSTTSFPDLQKQVASLPVIELVNAIDAPQVKSRVGVPWFQMGYQPGRYLVQWAHGKPLNVLLMPGPDNAGGSKEMVEGFRAAIAGSPVRIVDIALGDNDIEIQRNLLQEMLERHPEIDVVAGTAIAAEAAMGEGRNLKTPLTVVSFYLSHQVYRGLKRGRVIMAASDQMVWQGELAVEQAIRQLQGQSVSDNVSPPILVLTPKNADREHIRRSLSPGGFRPVYFYQHTSAAKK | 6.15 ± 0.33 h | 5.43 ± 0.75 h | 3.15 ± 0.62 h | 4.15 ± 1.5 h | 3.08 h |  |  | 4.04 h | 3.87 ± 1.8 h | 9.91 ± 3.2 h | 4.02 h | 6.77 ± 2.5 h
MILTPIRRYGAMILMLLTLVFSSEVLAKTHTTTASQKSHLTKASNKQVSSKQEYSRNSAKSSSLPDLRKYPSGTPRKKAFLRTVMPYITSQNAAITAERNWLISKQYQGQWSPAERARLKDIAKRYKVKWSGNTRKIPWNTLLERVDIIPTSMVATMAAAESGWGTSKLARNNNNLFGMKCMKGRCTNAPGKVKGYSQFSSVKESVSAYVTNLNTHPAYSSFRKSRAQLRKADQEVTATAMIHKLKGYSTKGKSYNNYLFAMYQDNQRLIAAHM | 0.848 h |  |  |  | 3.76 ± 0.26 h | 1.22 h | 2.47 ± 0.18 h | 5.88 ± 0.34 h |  |  |  | 
MINVLLVDDHELVRAGIRRILEDIKGIKVVGEASCGEDAVKWCRTNAVDVVLMDMSMPGIGGLEATRKIARSTADVKIIMLTVHTENPLPAKVMQAGAAGYLSKGAAPQEVVSAIRSVYSGQRYIASDIAQQMALSQIEPEKTESPFASLSERELQIMLMITKGQKVNEISEQLNLSPKTVNSYRYRMFSKLNIHGDVELTHLAIRHGLCNAETLSSQ [P0AED5] | 5.39 ± 0.6 h | 2.492 ± 0.024 h | 1.84 ± 0.24 h | 2.66 ± 0.048 h | 1.67 ± 0.048 h | 1.72 ± 0.12 h | 3.04 ± 0.16 h | 4.05 ± 0.16 h | 1.89 ± 0.24 h | 2.67 ± 0.15 h | 1.8 ± 0.087 h | 3.89 ± 0.4 h
MSNVIASLEKVLLPFAVKIGKQPHVNAIKNGFIRLMPLTLAGAMFVLINNVFLSFGEGSFFYSLGIRLDASTIETLNGLKGIGGNVYNGTLGIMSLMAPFFIGMALAEERKVDALAAGLLSVAAFMTVTPYSVGEAYAVGANWLGGANIISGIIIGLVVAEMFTFIVRRNWVIKLPDSVPASVSRSFSALIPGFIILSVMGIIAWALNTWGTNFHQIIMDTISTPLASLGSVVGWAYVIFVPLLWFFGIHGALALTALDNGIMTPWALENIATYQQYGSVEAALAAGKTFHIWAKPMLDSFIFLGGSGATLGLILAIFIASRRADYRQVAKLALPSGIFQINEPILFGLPIIMNPVMFIPFVLVQPILAAITLAAYYMGIIPPVTNIAPWTMPTGLGAFFNTNGSVAALLVALFNLGIATLIYLPFVVVANKAQNAIDKEESEEDIANALKF |  |  | 7.11 h |  | 6.04 ± 0.73 h |  | 6.68 ± 0.31 h | 9.58 ± 2.1 h | 6.51 h |  |  | 13.3 h
MVRIYTLTLAPSLDSATITPQIYPEGKLRCTAPVFEPGGGGINVARAIAHLGGSATAIFPAGGATGEHLVSLLADENVPVATVEAKDWTRQNLHVHVEASGEQYRFVMPGAALNEDEFRQLEEQVLEIESGAILVISGSLPPGVKLEKLTQLISAAQKQGIRCIVDSSGEALSAALAIGNIELVKPNQKELSALVNRELTQPDDVRKAAQEIVNSGKAKRVVVSLGPQGALGVDSENCIQVVPPPVKSQSTVGAGDSMVGAMTLKLAENASLEEMVRFGVAAGSAATLNQGTRLCSHDDTQKIYAYLSR | 5.23 ± 0.52 h | 4.483 ± 0.036 h | 4.05 ± 0.088 h | 4.74 ± 0.28 h | 3.8 ± 0.18 h | 3.32 ± 0.21 h | 6.09 ± 0.64 h | 10.7 ± 1.1 h | 4.436 ± 0.02 h | 6.92 ± 0.5 h | 5.84 ± 0.18 h | 11.864 ± 0.0075 h
MMDLDNIPDTQTEAEELEEVVMGLIINSGQARSLAYAALKQAKQGDFAAAKAMMDQSRMALNEAHLVQTKLIEGDAGEGKMKVSLVLVHAQDHLMTSMLARELITELIELHEKLKA | 4.73 h | 2.85 ± 0.031 h |  |  |  | 1.44 h | 1.82 ± 0.14 h | 2.66 h |  |  |  | 
MPELPEVETSRRGIEPHLVGATILHAVVRNGRLRWPVSEEIYRLSDQPVLSVQRRAKYLLLELPEGWIIIHLGMSGSLRILPEELPPEKHDHVDLVMSNGKVLRYTDPRRFGAWLWTKELEGHNVLTHLGPEPLSDDFNGEYLHQKCAKKKTAIKPWLMDNKLVVGVGNIYASESLFAAGIHPDRLASSLSLAECELLARVIKAVLLRSIEQGGTTLKDFLQSDGKPGYFAQELQVYGRKGEPCRVCGTPIVATKHAQRATFYCRQCQK | 6.1 ± 0.54 h | 6.39 ± 0.79 h | 6.03 h | 6.39 ± 1.2 h | 5.63 ± 0.36 h | 2.58 ± 0.11 h |  | 12.7 ± 2.8 h | 6.31 ± 0.42 h | 12.8 ± 1.4 h | 6.46 ± 0.51 h | 14.2 ± 0.28 h
MRRLRFSPRSSFARTLLLIVTLLFASLVTTYLVVLNFAILPSLQQFNKVLAYEVRMLMTDKLQLEDGTQLVVPPAFRREIYRELGISLYSNEAAEEAGLRWAQHYEFLSHQMAQQLGGPTEVRVEVNKSSPVVWLKTWLSPNIWVRVPLTEIHQGDFSPLFRYTLAIMLLAIGGAWLFIRIQNRPLVDLEHAALQVGKGIIPPPLREYGASEVRSVTRAFNHMAAGVKQLADDRTLLMAGVSHDLRTPLTRIRLATEMMSEQDGYLAESINKDIEECNAIIEQFIDYLRTGQEMPMEMADLNAVLGEVIAAESGYEREIETALYPGSIEVKMHPLSIKRAVANMVVNAARYGNGWIKVSSGTEPNRAWFQVEDDGPGIAPEQRKHLFQPFVRGDSARTISGTGLGLAIVQRIVDNHNGMLELGTSERGGLSIRAWLPVPVTRAQGTTKEG [P0AEJ4] | 6.372 ± 0.049 h | 7.33 ± 0.82 h | 6.19 ± 0.26 h | 6.19 ± 0.32 h | 6.14 ± 0.39 h | 3.2 ± 0.14 h | 6.16 ± 0.14 h |  | 6.35 ± 0.27 h | 13.1 ± 0.43 h | 6.87 ± 0.93 h | 14.12 ± 0.043 h
MKKIALAGLAGMLLVSASVNAMSISGQAGKEYTNIGVGFGTETTGLALSGNWTHNDDDGDVAGVGLGLNLPLGPLMATVGGKGVYTNPNYGDEGYAAAVGGGLQWKIGNSFRLFGEYYYSPDSLSSGIQSYEEANAGARYTIMRPVSIEAGYRYLNLSGKDGNRDNAVADGPYVGVNASF |  | > 8 h | > 8 h | 6.46 ± 1.8 h | 5.13 h | 2.53 ± 0.17 h |  |  | 4.53 ± 0.26 h |  | 4.72 h | 13 h
MRLGTFHKKKRFYINKIKINFLSFLFRNKINNQITDPAQVKSCLIIHDNNKLGDLIVLSSIYRELYSKGVKITLLTNRKGGEFLSNNKNIFEFCIKESTGFLEMLTLCKHLRDLQFDIVLDPFETMPSFKHSLILSSLKDSYILGFDHWYKRYYSFYHPHDECLKEHMSTRAIEILKHIYGEGKFSTNYDLHLPVDVEDKIKEFIGDTRIVIINPLGAKKICRLTFEQIKVIYQEVKTHFENYRIIFTGLPQDLLTIPILEIETLPFDEFIYTVALTKYSDFVISVDTALVHIAAAYHKPTLAFYPNSRTPEYPSHLIWSPNHHKSIQIVSPTYTVKDIDTETLTNSVKRLSCIDKK | 5.5 ± 0.61 h | 6.56 ± 1.5 h | 5.9 ± 0.57 h |  | 5.44 ± 0.1 h | 2.96 ± 0.088 h |  | 11.5 ± 0.51 h | 5.67 ± 0.47 h | 12.8 ± 1.3 h | 5.23 ± 0.19 h | 12.2 ± 0.22 h
MQILFNDQAMQCAAGQTVHELLEQLDQRQAGAALAINQQIVPREQWAQHIVQDGDQILLFQVIAGG | 2.75 h |  |  |  |  |  |  | 4.47 h | 1.3 h |  | 3.24 h | 5.24 ± 0.77 h
MSSYANHQALAGLTLGKSTDYRDTYDASLLQGVPRSLNRDPLGLKADNLPFHGTDIWTLYELSWLNAKGLPQVAVGHVELDYTSVNLIESKSFKLYLNSFNQTRFNNWDEVRQTLERDLSTCAQGKISVALYRLDELEGQPIGHFNGTCIDDQDITIDNYEFTTDYLENATCGEKVVEETLVSHLLKSNCLITHQPDWGSLQIQYRGRQIDREKLLRYLVSFRHHNEFHEQCVERIFNDLLRFCQPEKLSVYARYTRRGGLDINPWRSNSDFVPSTTRLVRQ | 5.36 ± 0.64 h | 5.85 ± 1.8 h | 5 ± 0.28 h | 4.54 ± 0.56 h | 4.09 ± 0.3 h | 2.81 ± 0.26 h | 5.542 ± 0.011 h | 8.79 ± 1.1 h | 4.41 ± 0.24 h | 7.06 ± 0.16 h | 5.622 ± 0.049 h | 10.92 ± 0.053 h
MRFCLILITALLLAGCSHHKAPPPNARLSDSITVIAGLNDQLQSWHGTPYRYGGMTRRGVDCSGFVVVTMRDRFDLQLPRETKQQASIGTQIDKDELLPGDLVFFKTGSGQNGLHVGIYDTNNQFIHASTSKGVMRSSLDNVYWQKNFWQARRI |  | 1.22 h |  | 0.828 h | 1.61 ± 0.18 h | 0.468 ± 0.23 h | 1.4 h | > 16 h |  | 4.32 h | 2.28 h | 4.21 ± 0.75 h
